From US20180094059A1 (UNIVERSITAT STUTTGART, published 2018)

B1: anti-EGFR IgG (antibody, V domains shown)
VH: EVQLVESGGGLVQPGGSLRLSCAASGFSLTNYGVHWVRQAPGKGLEWLGVIWSGGNTDYNTPFTSRFTISRDNSKNTLYLQMNSLRAEDTAVYYCARALTYYDYEFAYWGQGTTVTVSS
VL: DIQLTQSPSFLSASVGDRVTITCRASQSIGTNIHWYQQKPGKAPKLLIKYASESISGVPSRFSGSGSGTEFTLTISSLQPEDFATYYCQQNNNWPTTFGAGTKLEIKR
notes: EGFR-specific human IgG1 with mutated Fc domain (ADCC/CDC), kappa light chain, N-terminal FLAG tag on the heavy chain; derived from cetuximab by humanization; also called hu225 (anti-EGFR) IgG; anti-EGFR human IgG1 scaffold antibody
B2: scFv3M6-EHD2-scTRAIL3-FLVGGGPQRVA (other)
chain: EVQLLESGGGLVQPGGSLRLSCAASGFTFSHYVMAWVRQAPGKGLEWVSSISSSGGWTLYADSVKGRFTISRDNSKNTLYLQMNSLRAEDTAVYYCTRGLKMATIFDYWGQGTLVTVSSGGGGSGGGGSGGGGSQSALTQPASVSGSPGQSITISCTGTSSDVGSYNVVSWYQQHPGKAPKLIIYEVSQRPSGVSNRFSGSKSGNTASLTISGLQTEDEADYYCSSYAGSSIFVIFGGGTKVTVLAAAGGSGGDFTPPTVKILQSSCDGGGHFPPTIQLLCLVSGYTPGTINITWLEDGQVMDVDLSTASTTQEGELASTQSELTLSQKHWLSDRTYTCQVTYQGHTFEDSTKKCADSNGGSGGASSGGGPQRVAAHITGTRGRSNTLSSPNSKNEKALGRKINSWESSRSGHSFLSNLHLRNGELVIHEKGFYYIYSQTYFRFQEEIKENTKNDKQMVQYIYKYTSYPDPILLMKSARNSCWSKDAEYGLYSIYQGGIFELKENDRIFVSVTNEHLIDMDHEASFFGAFLVGGGPQRVAAHITGTRGRSNTLSSPNSKNEKALGRKINSWESSRSGHSFLSNLHLRNGELVIHEKGFYYIYSQTYFRFQEEIKENTKNDKQMVQYIYKYTSYPDPILLMKSARNSCWSKDAEYGLYSIYQGGIFELKENDRIFVSVTNEHLIDMDHEASFFGAFLVGGGPQRVAAHITGTRGRSNTLSSPNSKNEKALGRKINSWESSRSGHSFLSNLHLRNGELVIHEKGFYYIYSQTYFRFQEEIKENTKNDKQMVQYIYKYTSYPDPILLMKSARNSCWSKDAEYGLYSIYQGGIFELKENDRIFVSVTNEHLIDMDHEASFFGAFLV

What was measured:
EGFR-Fc = molecular target: T1, EGFR-Fc (UniProt P00533 25-645); assay: ELISA, EGFR-Fc
T1 construct: also called purified EGFR-Fc; not shown: Fc part

[1] = molecular target: T2, EGFR on EGFR-positive tumor cell lines (UniProt P00533 25-1210, limits assumed); assay: flow cytometry, HCT116 cells
T2 construct: whole, on cells; The cell line is named under assay or readout; also called EGFR+ cell lines

[2] = molecular target: T2, EGFR on EGFR-positive tumor cell lines; assay: flow cytometry, HCT116 cells; remark: listed apart in the source
[3] = molecular target: T2, EGFR on EGFR-positive tumor cell lines; assay: flow cytometry, Colo205 cells
[4] = molecular target: T2, EGFR on EGFR-positive tumor cell lines; assay: flow cytometry, Colo205 cells; remark: listed apart in the source
HER3-Fc = molecular target: T3, HER3-Fc (UniProt P21860 20-643); assay: ELISA, HER3-Fc
T3 construct: not shown: Fc part

TRAIL-R2-Fc = molecular target: T4, TRAIL-R2-Fc (human, UniProt O14763 56-210); assay: ELISA, TRAIL-R2-Fc
T4 construct: extracellular domain; also called DR5-Fc; DR5-Fc fusion protein; not shown: Fc-part

| EC50 (EGFR-Fc) [nM] | EC50 [1] [nM] | EC50 [2] [nM] | EC50 [3] [nM] | EC50 [4] [nM] | EC50 (HER3-Fc) [nM] | EC50 (TRAIL-R2-Fc) [nM] | Binder |
| --- | --- | --- | --- | --- | --- | --- | --- |
| 0.156 | 0.008 | 0.07 | 0.028 | 0.06 | – | – | B1 |
| – | – | – | – | – | 11.6 | 2.65 | B2 |
